Source: PMC11811267 (Journal of Separation Science, 2025)

Key:
[1] = Insulin concentrations in patient plasma samples (2D-LC-MS/MS); assay type: in vivo, human
Description: Patient samples were collected in K2EDTA tubes, and centrifuged, and 250 µL aliquots were either analyzed immediately or stored at −80°C for analysis the following day. A previously published method [12] was used for sample preparation, including protein precipitation, conversion of analytes to anions, and micro SPE (µSPE) using Oasis MAX multimodal sorbent (Waters) in a 96‐well design. […] QuanRecovery with MaxPeak 700 µL plates (Waters) were used for elution after SPE and subsequent injection for 2D‐LC‐MS/MS analysis.
To assess the clinical applicability of the proposed method, 30 patient samples (16 males and 15 females) were analyzed. Plasma samples (collected in K2EDTA tubes) were supplied to the Department of Forensic Medicine.

[2] = Short-term stability in refrigerator (4°C) in artificial plasma with and without 1% PIC; details: triplicate, 2D-LC-MS/MS
Description: (§1) A mixed standard solution containing all insulins at a concentration of 10,000 ng/mL was obtained by diluting the stock solutions with artificial plasma. This stock solution was further diluted with artificial plasma to produce a series of calibration standards at the following concentrations: 50, 100, 150, 250, 500, 1,000, 1500, 2500, 5000, 10 000, and 15 000 pg/mL. Quality control (QC) samples were prepared in artificial plasma at 200, 800, 3000, and 9000 pg/mL and analyzed prior to real human plasma samples. For method validation, four concentration levels were prepared in artificial plasma at 50, 125, 6000, and 13 000 pg/mL. Two concentration levels (193 and 7752 pg/mL) were evaluated for stability testing.
(§2) Each concentration level was tested in triplicate.

[3] = Freeze-thaw stability in artificial plasma after storage at −80°C; assay type: in vitro ADME; details: stored at −80°C, triplicate, 2D-LC-MS/MS; for 24 h, change (%): cycle at 24 h; for 48 h, change (%): cycle at 48 h; for 72 h, change (%): cycle at 72 h
Description: (§3) The stability tests of all insulins were performed at two concentration levels (193 and 7752 pg/mL). One set of tests was performed with artificial plasma and the other set with artificial plasma containing 1% PIC. Each concentration level was tested in triplicate. These QC samples were quantified using an artificial plasma calibration curve without PIC, and the obtained concentrations were compared with the nominal concentrations of the low quality control (LQC) and high quality control (HQC), which were set to 100%. To evaluate the stability of insulins in artificial plasma containing 1% PIC, we considered the concentration measured at time zero as the baseline (100%). All subsequent changes in concentration were calculated relative to this initial measurement.
(§4) Short‐term stability, long‐term stability, and freeze‐thaw stability were evaluated in this study. LQC and HQC samples were stored at room temperature and in a refrigerator for 3, 6, and 24 h to assess short‐term (bench‐top) stability and at 4°C in the autosampler for 24 h to assess re‐injection stability.

[4] = Short-term (bench-top) stability at room temperature in artificial plasma with and without 1% PIC; details: triplicate, 2D-LC-MS/MS
Description: as §1, §2

[5] = Adsorption test in three types of glass vials; assay type: physicochemical; details: 15 ng/mL in 6.7% acetic acid in water:methanol (60:40, v/v), UHPLC-MS/MS, Figure S10
Description: We prepared stock solutions of all insulins, which were then transferred to three different types of glass vials and analyzed by LC‐MS/MS. For the adsorption test, a mixture of all insulins at a concentration of 15 ng/mL was prepared in a solvent containing 6.7% acetic acid in a water:methanol mixture (60:40, v/v). The mixture was then transferred to three types of vials and analyzed by UHPLC‐MS/MS. This experiment was performed prior to the optimization of the chromatographic method.

[6] = Autosampler (re-injection) stability at 4°C for 24 h; assay type: in vitro ADME; details: autosampler (AS) 4°C, triplicate, 2D-LC-MS/MS
Description: as §3, §4

[7] = Long-term stability in artificial plasma at −80°C; assay type: in vitro ADME; details: triplicate, 2D-LC-MS/MS
Description: as §3, §4

[8] = Long-term stability in artificial plasma at −20°C; assay type: in vitro ADME; details: triplicate, 2D-LC-MS/MS
Description: as §3, §4

[9] = artificial plasma (BZ273) with 1% PIC, 193 pg/mL, % of concentration at time zero (=100%)
[10] = artificial plasma (BZ273) with 1% PIC, 7752 pg/mL, % of concentration at time zero (=100%)
[11] = artificial plasma (BZ273) without PIC, 193 pg/mL, % of nominal concentration (=100%)
[12] = artificial plasma (BZ273) without PIC, 7752 pg/mL, % of nominal concentration (=100%)
[13] = artificial plasma (BZ273) with 1% PIC, 7752 pg/mL, % of concentration at time zero
[14] = artificial plasma (BZ273) without PIC, 7752 pg/mL, % of nominal concentration
[15] = artificial plasma (BZ273) with 1% PIC, 193 pg/mL, % of concentration at time zero
[16] = artificial plasma (BZ273) without PIC, 193 pg/mL, % of nominal concentration
[17] = artificial plasma (BZ273) without PIC, 7752 pg/mL, % of nominal concentration, listed as Insulin aspart

For Human insulin, the “Concentration range (pg/mL) in patient samples” value ([1]; human plasma (K2EDTA), 30 patient samples from the Department of Forensic Medicine (unexplained deaths), range over quantified samples) was 219.1 to 6065.2 pg/mL, the “Concentration in a real patient sample” value ([1]; human plasma, single patient sample of Figure 2) was “LLOQ” and the “3 h 4°C, change (%)” value [2, 9] was 100.4%. For the same substance, the “24 h 4°C, change (%)” value ([2]; artificial plasma (BZ273) with 1% PIC, 193 pg/mL, 24 h, % of concentration at time zero (=100%)) was 87.9%, the “6 h 4°C, change (%)” value [2, 10] was 98.6% and the “6 h 4°C, change (%)” value [2, 11] was 105.6%. The “3 h 4°C, change (%)” value [2, 12] was 90.2%, the “24 h, change (%)” value [3, 13] was 111.6% and the “24 h, change (%)” value [3, 14] was 100.2%. For the same substance, the “48 h, change (%)” value [3, 15] was 116.6%, the “48 h, change (%)” value [3, 14] was 94.6% and the “72 h, change (%)” value [3, 13] was 92.9%. For the same substance, the “72 h, change (%)” value [3, 14] was 87.1%, the “0 h, change (%)” value [4, 9] was 100.0% and the “24 h, change (%)” value [4, 9] was 72.1%. The “0 h, change (%)” value [4, 10] was 100.0%, the “6 h, change (%)” value [4, 10] was 86.4% and the “24 h, change (%)” value [4, 10] was 67.4%. The “0 h, change (%)” value [4, 11] was 100.1%, the “0 h, change (%)” value [4, 12] was 99.1% and the “6 h, change (%)” value [4, 12] was 95.1%. For the same substance, the “Difference in concentration between vial types (adsorption to container surfaces)” value [5] was “up to 50%”, the “24 h AS, change (%)” value ([6]; extracted samples from artificial plasma with 1% PIC, 193 pg/mL, % of concentration at time zero (=100%)) was 105.9% and the “24 h AS, change (%)” value ([6]; extracted samples from artificial plasma without PIC, 7752 pg/mL, % of nominal concentration (=100%)) was 100.5%. The “1 week, change (%)” value [7, 14] was 100.1%, the “2 weeks, change (%)” value [7, 15] was 105.8% and the “2 weeks, change (%)” value [7, 13] was 111.9%. For the same substance, the “2 weeks, change (%)” value [7, 14] was 106.0%, the “1 week, change (%)” value [8, 15] was 70.1% and the “1 week, change (%)” value [8, 13] was 54.9%. The “2 weeks, change (%)” value [8, 13] was 61.8%, the “2 weeks, change (%)” value [8, 16] was 106.3% and the “3 weeks, change (%)” value [8, 13] was 25.9%.

In the case of insulin aspart, the “24 h, change (%)” value [3, 15] is reported as 111.6%, the “24 h, change (%)” value [3, 13] is reported as 117.4% and the “24 h, change (%)” value [3, 16] is reported as 90.4%. For the same substance, the “24 h, change (%)” value [3, 14] was 100.00%, the “24 h, change (%)” value [3, 17] was 100.0% and the “48 h, change (%)” value [3, 15] was 111.6%. The “48 h, change (%)” value [3, 13] was 115.5%, the “48 h, change (%)” value [3, 16] was 98.1% and the “72 h, change (%)” value [3, 15] was 93.7%. For the same substance, the “72 h, change (%)” value [3, 13] was 99.8%, the “72 h, change (%)” value [3, 16] was 85.7% and the “72 h, change (%)” value [3, 14] was 92.10%. The “72 h, change (%)” value [3, 17] was 92.1%, the “24 h AS, change (%)” value ([6]; extracted samples from artificial plasma with 1% PIC, 7752 pg/mL, % of concentration at time zero (=100%)) was 125.7% and the “24 h AS, change (%)” value ([6]; extracted samples from artificial plasma without PIC, 193 pg/mL, % of nominal concentration (=100%)) was 92.6%. For the same substance, the “1 week, change (%)” value [7, 15] was 116.5%, the “1 week, change (%)” value [7, 13] was 123.4% and the “1 week, change (%)” value [7, 16] was 106.0%. For the same substance, the “1 week, change (%)” value [7, 14] was 104.7%, the “2 weeks, change (%)” value [7, 15] was 99.6% and the “2 weeks, change (%)” value [7, 13] was 106.6%. The “2 weeks, change (%)” value [7, 14] was 97.2%, the “3 weeks, change (%)” value [7, 15] was 93.4% and the “3 weeks, change (%)” value [7, 13] was 108.9%. For the same substance, the “3 weeks, change (%)” value [7, 16] was 97.8%, the “3 weeks, change (%)” value [7, 14] was 92.8% and the “1 week, change (%)” value [8, 15] was 70.7%. For the same substance, the “1 week, change (%)” value [8, 13] was 72.2%, the “1 week, change (%)” value [8, 16] was 105.6% and the “1 week, change (%)” value [8, 14] was 104.3%. The “2 weeks, change (%)” value [8, 15] was 58.4%, the “2 weeks, change (%)” value [8, 13] was 62.5% and the “2 weeks, change (%)” value [8, 16] was 107.3%. The “2 weeks, change (%)” value [8, 14] was 100.2%, the “3 weeks, change (%)” value [8, 15] was 39.5% and the “3 weeks, change (%)” value [8, 13] was 35.8%. The “3 weeks, change (%)” value [8, 16] was 101.4% and the “3 weeks, change (%)” value [8, 14] was 95.2%.
